Data published in patent US20060165706A1 (GENETICS INSTITUTE, published 2006).

How the values were obtained:
human CTLA4-Ig [1] = target: T1, human CTLA4-Ig (human, UniProt P16410 38-161); assay: competition ELISA on coated human CTLA4-Ig; reference murine CTLA4-26B
T1 construct: also called rhCTLA4IgG1Fc; not shown: immunoglobulin Fc part of the fusion; named IgG1Fc in rhCTLA4IgG1Fc and detected with anti-human Fc

[2] = target: CTLA4 on CTLA4-expressing CHO cells (human, UniProt P16410 36-223); assay: FACS competition on CTLA4-expressing CHO cells; competitor 125 ng FITC-labeled murine anti-CTLA4; unlabeled antibody 2000 ng to 100 ng
Sequence of CTLA4 on CTLA4-expressing CHO cells (P16410 36-223 T147A limits assumed): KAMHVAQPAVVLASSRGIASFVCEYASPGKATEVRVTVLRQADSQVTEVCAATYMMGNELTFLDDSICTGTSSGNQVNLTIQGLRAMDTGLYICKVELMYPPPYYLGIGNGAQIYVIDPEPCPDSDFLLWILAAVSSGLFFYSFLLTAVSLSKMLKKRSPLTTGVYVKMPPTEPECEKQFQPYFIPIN
Description: The starting concentration of the unlabeled competitor was 2000 ng and was diluted 2-fold serially to 100 ng.

human CTLA4-Ig [3] = target: T1, human CTLA4-Ig; assay: competition ELISA on plate-coated human CTLA4-Ig (10 ug/ml); cold competitor titrated against biotinylated murine CTLA4-26B; streptavidin-peroxidase, ABTS, O.D. 415 nm
Description: Plates were coated with human CTLA4-Ig (10 ug/ml) overnight, washed the next day and blocked with Superblock (Pierce) for 15 min at room temperature. Plates were washed three times with 1×PBS/0.1% Tween 20 and three times with 1×PBS.
100 ul of antibody mixtures was transferred to human CTLA4-Ig coated ELISA plate and rocked for 2 hours at room temperature. Plates were washed as described above and a secondary reagent (streptavidin peroxidase conjugate at 1:1000 dilution) in PBT buffer (1×PBS, 1% BSA, 0.1% Tween 20 was added. Plates were incubated for 1 hr at RT with shaking. Plates were washed as described above and developed for 10 minutes at room temperature with ABTS+H2O2 (100 ul/well) and the reaction was stopped with 2% oxalic acid (100 ul/well).

human CTLA4-Ig [4] = target: T1, human CTLA4-Ig; assay: calculated; method and form of CTLA4 not stated (Example 8, competition assays); humanized, IgG1 isotype
human CTLA4-Ig [5] = target: T1, human CTLA4-Ig; assay: calculated; method and form of CTLA4 not stated (Example 8, competition assays); humanized, IgG2m3 isotype
human CTLA4-Ig [6] = target: T1, human CTLA4-Ig; assay: calculated; method and form of CTLA4 not stated (Example 8, competition assays); humanized, IgG4 isotype
human CTLA4-Ig [7] = target: T1, human CTLA4-Ig; assay: calculated; method and form of CTLA4 not stated (Example 8, competition assays); murine antibody
human CTLA4-Ig [8] = target: T1, human CTLA4-Ig; assay: ELISA on plate-coated human CTLA4-Ig (10 ug/ml); serial dilutions of antibody, AP-goat anti-mouse, ABTS, OD 405 nm
Description: ELISA plates were incubated with 10 ug/ml human CTLA4-Ig overnight. Plates were washed with PBS/1% BSA and incubated with serial dilutions of primary antibody for 2 hrs at room temperature (RT). After washing, saturating concentrations of AP-conjugated goat anti-mouse antibody were added, and incubated for 1 hr at RT. Unbound goat antibodies were washed using PBS/1% BSA. The assay was developed using ABTS.

T67 = target: T2, T67; assay: sandwich ELISA: antibody coated at 10 ug/ml, CHO supernatant with about 0.5 ug/ml CTLA4-Ig mutant, AP-goat anti-human Fc; blanks on the sheet: Mock 0.174, DME 0.183
T2 construct: one of 11 alanine mutants made by site-directed mutagenesis, used as CHO supernatant; also called CTLA4 point mutant T67; CTLA4-Ig T67A; not shown: human Ig Fc portion (with hinge or linker) of the CTLA4-Ig fusion

D62 = target: T3, D62; assay: as above
T3 construct: one of 11 alanine mutants made by site-directed mutagenesis, used as CHO supernatant; also called CTLA4 point mutant D62; CTLA4-Ig D62A; not shown: human Ig Fc portion (with hinge or linker) of the CTLA4-Ig fusion

L61 = target: T4, L61; assay: as above
T4 construct: one of 11 alanine mutants made by site-directed mutagenesis, used as CHO supernatant; also called CTLA4 point mutant L61; CTLA4-Ig L61A; not shown: the human Ig (Fc) part of the CTLA4-Ig fusion and its junction

R38 = target: T5, R38; assay: as above
T5 construct: one of 11 alanine mutants made by site-directed mutagenesis, used as CHO supernatant; also called CTLA4 point mutant R38; CTLA4-Ig R38A; not shown: human Ig Fc portion (with hinge or linker) of the CTLA4-Ig fusion

S64 = target: T6, S64; assay: as above
T6 construct: one of 11 alanine mutants made by site-directed mutagenesis, used as CHO supernatant; also called CTLA4 point mutant S64; CTLA4-Ig S64A; not shown: human Ig Fc portion (with hinge or linker) of the CTLA4-Ig fusion

R85 = target: T7, R85; assay: as above
T7 construct: one of 11 alanine mutants made by site-directed mutagenesis, used as CHO supernatant; also called CTLA4 point mutant R85; CTLA4-Ig R85A; not shown: human Ig Fc portion (with hinge or linker) of the CTLA4-Ig fusion

E46 [9] = target: T8, E46; assay: as above
T8 construct: one of 11 alanine mutants made by site-directed mutagenesis, used as CHO supernatant; also called CTLA4 point mutant E46; CTLA4-Ig E46A; not shown: human Ig Fc portion (with hinge or linker) of the CTLA4-Ig fusion

T45 = target: T9, T45; assay: as above
T9 construct: one of 11 alanine mutants made by site-directed mutagenesis, used as CHO supernatant; also called CTLA4 point mutant T45; CTLA4-Ig T45A; not shown: the human Ig (Fc) part of the CTLA4-Ig fusion and its junction

Q82 = target: T10, Q82; assay: as above
T10 construct: one of 11 alanine mutants made by site-directed mutagenesis, used as CHO supernatant; also called CTLA4 point mutant Q82; CTLA4-Ig Q82A; not shown: human Ig Fc portion (with hinge or linker) of the CTLA4-Ig fusion

D63 = target: T11, D63; assay: as above
T11 construct: one of 11 alanine mutants made by site-directed mutagenesis, used as CHO supernatant; also called CTLA4 point mutant D63; CTLA4-Ig D63A; not shown: human Ig Fc portion (with hinge or linker) of the CTLA4-Ig fusion

I65 = target: T12, I65; assay: as above
T12 construct: one of 11 alanine mutants made by site-directed mutagenesis, used as CHO supernatant; also called CTLA4 point mutant I65; CTLA4-Ig I65A; not shown: the human Ig (Fc) part of the CTLA4-Ig fusion and its junction

E46 [10] = target: T8, E46; assay: sandwich ELISA: antibody coated at 10 ug/ml, CHO supernatant with CTLA4-Ig mutant, AP-goat anti-human Fc
Description: Mutant proteins were transiently expressed on CHO cells and supernatants harvested at 48 hrs. Supernatants containing CTLA4 mutant molecules were quantitated and standardized by ELISA. […] After incubation for 2 hrs at RT, plates were washed and incubated for 1 hr with AP-conjugated goat anti-human Fc specific IgG. The assay was developed as described above.

human CTLA4-Ig [11] = target: T1, human CTLA4-Ig; assay: inhibition ELISA on plate-coated human CTLA4-Ig (10 ug/ml); antibody titrated, then biotin-CD86-Ig at 0.66 ug/ml as the blocked ligand; neutravidin-AP, ABTS
Description: ELISA were performed as described above with modifications. […] After washing, saturating concentrations of neutravidin-AP were added, and incubated for 1 hr at RT. Unbound neutravidin-AP was washed using PBS/1% BSA. The assay was developed using ABTS.

T1 sequence (P16410 other isoform, or with tags, fused parts or gaps limits assumed): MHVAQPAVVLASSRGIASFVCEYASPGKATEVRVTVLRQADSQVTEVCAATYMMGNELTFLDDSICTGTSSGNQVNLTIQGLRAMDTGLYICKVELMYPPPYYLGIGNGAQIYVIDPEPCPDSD

B1: humanized anti-CTLA4 antibody 26, IgG1 isotype (antibody, V domains shown)
VH: QVQLQESGPGLVKPSQTLSLTCTVSGFSLTSYGVYWVRQPPGKGLEWLGVIWAGGTTNYNSALMSRLTISKDTSKNQVSLKLSSVTAADTAVYYCARGPPHAMMKRGYAMDYWGQGTLVTVSS
VL: DIQMTQSPSSLSASVGDRVTITCSATSSITYMSWYQQKPGKAPKLLIYDTSNLASGVPSRFSGSGSGTDYTLTISSLQPEDFATYYCQQWSSYPLTFGGGTKVEIK
notes: Human IgG1 heavy constant region (pVgamma1 vector) and human kappa constant region (pVkappa vector); also called hCTLA4-26B IgG1; humanized anti-CTLA4 IgG1
fold difference in affinity against the murine antibody (human CTLA4-Ig [1]): ≤ 10 fold | fold difference in binding affinity against the murine antibody [2]: ≤ 3 fold | IC50 (read off the curve) (human CTLA4-Ig [3]): ~3 µg/mL | Kd (human CTLA4-Ig [4]): ~2 nM

B2: humanized anti-CTLA4 antibody 26, IgG2m3 isotype (antibody, V domains shown)
VH: B1 VH
VL: B1 VL
notes: Human IgG2m3 (mutated IgG2) heavy constant region (pVgamma2m3 vector) and human kappa constant region; also called hCTLA4-26B IgG2m3; IgG2 m3 (2 mutated 3)
Kd (human CTLA4-Ig [5]): ~1.2 nM | fold difference in affinity against the murine antibody (human CTLA4-Ig [1]): ≤ 10 fold | IC50 (read off the curve) (human CTLA4-Ig [3]): ~3 µg/mL

B3: humanized anti-CTLA4 antibody 26, IgG4 isotype (antibody, V domains shown)
VH: B1 VH
VL: B1 VL
notes: Human IgG4 heavy constant region (pVgamma4 vector) and human kappa constant region; also called hCTLA4-26B IgG4; PVkLC+PVg4HC
Kd (human CTLA4-Ig [6]): ~1.1 nM | fold difference in affinity against the murine antibody (human CTLA4-Ig [1]): ≤ 10 fold | IC50 (read off the curve) (human CTLA4-Ig [3]): ~3 µg/mL

B4: murine anti-human CTLA4 monoclonal antibody number 26 (antibody, V domains shown)
VH: QVQLKESGPGLVAPSQSLSITCTVSGFSLTSYGVYWVRQPPGKGLEWLGVIWAGGTTNYNSALMSRLSISKDNSKSQVFLKMSSLQTDDTAMYYCARGPPHAMMKRGYAMDYWGQGTSVIVSS
VL: QNVLTQSPAIMPASPGEKVTMTCSATSSITYMSWYQQKSGSSPRLLIYDTSNLASGVPVRFSGSGSGTSYSLTISRMEAEDAATYYCQQWSSYPLTFGAGTKLELK
notes: Mouse IgG1; also called antibody 26; antibody 26B
Kd (human CTLA4-Ig [7]): ~1.7 nM | EC50 (read off the curve) (human CTLA4-Ig [8]): ~0.05 µg/mL | IC50 (read off the curve) (human CTLA4-Ig [3]): ~3 µg/mL | O.D. 450 nm (T67): 0.944 | O.D. 450 nm (D62): 0.974 | O.D. 450 nm (L61): 1.19 | O.D. 450 nm (R38): 0.636 | O.D. 450 nm (S64): 1.1 | O.D. 450 nm (R85): 0.976 | O.D. 450 nm (E46 [9]): 0.16 | O.D. 450 nm (T45): 0.948 | O.D. 450 nm (Q82): 1.07 | O.D. 450 nm (D63): 0.979 | O.D. 450 nm (I65): 1.17 | binding result (E46 [10]): no binding | IC50 (read off the curve) (human CTLA4-Ig [11]): ~0.6 µg/mL
